Molecular target: F-actin of the thin filaments in NRCs, labelled with Phalloidin-iFluor 514 (rat (endogenous in neonatal rat cardiomyocytes)) (UniProt P68035)
Assay: FRET or BRET; FRET-FLIM (time-domain, TCSPC, donor lifetime) in NRCs demembranated in relaxing solution with 25 μmol/L nitro-blebbistatin and fixed with paraformaldehyde; mTFP donor, mVenus or Phalloidin-iFluor514 acceptor; cells untreated or incubated with isoproterenol before skinning

Sequence of mTFP-cMyBP-C (cardiac myosin binding protein-C with mTFP conjugated to its N terminus) (Q14896 whole entry): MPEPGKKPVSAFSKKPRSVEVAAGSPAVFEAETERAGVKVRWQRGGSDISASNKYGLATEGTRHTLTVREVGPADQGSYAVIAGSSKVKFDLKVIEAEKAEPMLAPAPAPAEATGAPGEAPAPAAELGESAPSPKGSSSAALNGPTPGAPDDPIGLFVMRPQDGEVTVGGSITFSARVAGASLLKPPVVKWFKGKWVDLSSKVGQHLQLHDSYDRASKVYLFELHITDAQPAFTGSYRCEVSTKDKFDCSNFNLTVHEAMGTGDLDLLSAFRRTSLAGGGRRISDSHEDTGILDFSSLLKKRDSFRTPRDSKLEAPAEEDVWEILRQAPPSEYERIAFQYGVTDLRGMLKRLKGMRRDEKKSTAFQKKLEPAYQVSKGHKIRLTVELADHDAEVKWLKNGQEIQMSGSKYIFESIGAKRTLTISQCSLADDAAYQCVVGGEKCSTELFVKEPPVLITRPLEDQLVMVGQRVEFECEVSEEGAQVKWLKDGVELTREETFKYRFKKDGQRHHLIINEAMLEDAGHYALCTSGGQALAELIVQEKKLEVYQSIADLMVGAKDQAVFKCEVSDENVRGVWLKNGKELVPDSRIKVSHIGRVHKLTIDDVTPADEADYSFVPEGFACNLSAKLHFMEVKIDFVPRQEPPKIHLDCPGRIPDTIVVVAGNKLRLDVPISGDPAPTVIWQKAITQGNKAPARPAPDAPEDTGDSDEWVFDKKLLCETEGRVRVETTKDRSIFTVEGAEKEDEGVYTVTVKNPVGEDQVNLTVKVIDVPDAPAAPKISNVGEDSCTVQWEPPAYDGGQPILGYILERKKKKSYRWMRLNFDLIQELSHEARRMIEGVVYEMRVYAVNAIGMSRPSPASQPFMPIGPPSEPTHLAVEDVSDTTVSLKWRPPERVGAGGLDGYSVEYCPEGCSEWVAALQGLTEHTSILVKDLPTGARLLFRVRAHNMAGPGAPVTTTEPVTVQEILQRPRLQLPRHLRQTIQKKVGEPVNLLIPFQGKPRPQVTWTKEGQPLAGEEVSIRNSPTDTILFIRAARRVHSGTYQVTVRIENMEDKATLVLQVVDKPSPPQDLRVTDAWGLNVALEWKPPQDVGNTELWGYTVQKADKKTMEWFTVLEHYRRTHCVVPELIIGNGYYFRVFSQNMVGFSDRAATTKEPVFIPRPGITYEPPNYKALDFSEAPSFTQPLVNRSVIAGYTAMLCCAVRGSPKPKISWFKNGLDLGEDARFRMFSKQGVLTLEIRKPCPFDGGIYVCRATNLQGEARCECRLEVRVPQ

## mTFP-cMyBP-C (cardiac myosin binding protein-C with mTFP conjugated to its N terminus) (from UniProt Q14896 1-1274) (natural protein)
  FRET efficiency <E%>: 12%

— PMC10041117
